Assay results from the DeepSol protein solubility set.

experiment: soluble on expression in E. coli; label from the status in PepcDB or PDB records

Sequence | soluble on expression in E. coli
MKKVLILGGGIAGVAAAIAFRKRGFEVEVVSDREFLFIYPIAIWIPVGTERFRNVAFPLEKVARKHGFSLTLDTVTAINASRDSVTLEKAGQRSDFDFLVIALGSDKMKHEGIEHTLSICGAPEHSIRLKEKIDALIERGHGKIAFGFGGNPKDPSAVRGGPGFELFFNLHHKLTKLGIRDNFEMTFFAPMAQPGAKMGQKALDMMAVMFKAKNFRQRYGKKITRFEVDGVVFEDGSKLESDLTMFIPAGSGHSVFRNSDLPLSEAGFVKIDDFCRVVGVDGWYAVGDSAALEGPEWKAKQGHIAEFMADCAANNCLAEHFGHQEPMRGYQEHLNVLCVMDTGDGAGFVYRTGHSEMFIPMPVVGHWLKKAWGYYYKLSKMKYIPRIPGMLEHHHHHH | soluble
MGSDKIHHHHHHMETRKLAVFVDLATTQNYSRSAERMFLSQSTISKYIMALERDWQVQLFERAHRQVTLTRIGQQLLPRAQAILREERQLQQVLAANTAHNAQSLVVQGLPSLAQYQAFHIITAFTKRYPEVKLQFSEASVDRLAHALDHTNVDIVFTRIFGDQPNNYDVLLNETDQFVVLVPKDDPLAQQAEISLSMLAHESILLLKDTIGEDNPLFSAFQKMHTPQMVYDGQRIDLILEMLNQGDGVSVVMARSFDLTGFDNIKAIPLTPTIRSQMAFMKRPDNHAAVVAKFWAFATKYSQSLSD | not soluble
MVVLGRIAGPHGIRGQIKVIPFTEYVDGLMEYPVWCLSRDEKNWQIVRPATFFIHDNLLIVTLTGYSDRTSASELKGLLVAVPRSQLPPLSKDGEDGYYWTDLIGISVVNMQGEPLGTVAGLFETGANDVLRVRLSGSSKDELIPFVDQVIRQVDLESRQITVDWELGYLEHHHHHH | not soluble
GPGSMQQSLIPGHNNNRHLTVEEIENNIGGLAITDNKLQELFDSLDVERTGYLPIGEVKKFYKGLEHYGLEPTDAEIESEMKKFAKSDENFMSYDEFCCLMLSFAQR | not soluble
MPRPPHLCTCGQLVPHGARCSCQIQRDRERKARFDQKRPSSRERGYTHEWRKARAEFLHQHPTCAFCGAPAGVVDHVIPHKGDMTLFWDRTNWQALCKPCHDRQKQMQERYNHIISLEHHHHHH | not soluble
GPGSMEVYRRITERVRGALWAHHGRLMSERQFHRILAFVYNNKYEYQIRFDRMEVVGREWGGRVEVVTTPAGYLKRVRVNPCVEDLTLYQQQQLILSAYASACADGRKLMEQAEMNIYKQFLKDLKPIVMGIRDNPEFYTVPENSIETIGGVLQTGDSNNLCHTHRTIPAAKARQPTDEVRARQEWEQKWINSPRGQSWALTLRGKTYFTLHGPQYRPRGAPGAKKETLPLDIPAPYTAMDEKRLLKKNWMAYLDNKHVAEVMWTRVKIADREKRQRLLQETGRAWHRPINEEAINRW | not soluble
MGSDKIHHHHHHMANVNKTPGKTRRAEVAGGGFAGLTAAIALKQNGWDVRLHEKSSELRAFGAGIYLWHNGLRVLEGLGALDDVLQGSHTPPTYETWMHNKSVSKETFNGLPWRIMTRSHLHDALVNRARALGVDISVNSEAVAADPVGRLTLQTGEVLEADLIVGADGVGSKVRDSIGFKQDRWVSKDGLIRLIVPRMKKELGHGEWDNTIDMWNFWPRVQRILYSPCNENELYLGLMAPAADPRGSSVPIDLEVWVEMFPFLEPCLIEAAKLKTARYDKYETTKLDSWTRGKVALVGDAAHAMCPALAQGAGCAMVNAFSLSQDLEEGSSVEDALVAWETRIRPITDRCQALSGDYAANRSLSKGNMFTPAALEAARYDPLRRVYSWPQ | not soluble
MPAIEVGRICVKVKGREAGSKCVIVDIIDDNFVLVTGPKDITGVKRRRVNILHLEPTDKKIDIQKGASDEEVKKKLEESNLTEYMKEKIKIRMPTL | soluble
MAKKTLPAGVKSPPYIFSPIPFLGHAIAFGKSPIEFLENAYEKYGPVFSFTMVGKTFTYLLGSDAAALLFNSKNEDLNAEDVYSRLTTPVFGKGVAYDVPNPVFLEQKKMLKSGLNIAHFKQHVSIIEKETKEYFESWGESGEKNVFEALSELIILTASHCLHGKEIRSQLNEKVAQLYADLDGGFSHAAWLLPGWLPLPSFRRRDRAHREIKDIFYKAIQKRRQSQEKIDDILQTLLDATYKDGRPLTDDEVAGMLIGLLLAGQHTSSTTSAWMGFFLARDKTLQKKCYLEQKTVCGENLPPLTYDQLKDLNLLDRCIKETLRLRPPIMIMMRMARTPQTVAGYTIPPGHQVCVSPTVNQRLKDSWVERLDFNPDRYLQDNPASGEKFAYVPFGAGRHRCIGENFAYVQIKTIWSTMLRLYEFDLIDGYFPTVNYTTMIHTPENPVIRYKRRSTHHHHHH | soluble
MSLDVCRGMLCGFGAVCEPSVEDPGRASCVCKKNVCPAMVAPVCGSDASTYSNECELQRAQCNQQRRIRLLRQGPCGSRDPCANVTCSFGSTCVPSADGQTASCLCPTTCFGAPDGTVCGSDGVDYPSECQLLRHACANQEHIFKKFDGPCDPCQGSMSDLNHICRVNPRTRHPEMLLRPENCPAQHTPICGDDGVTYENDCVMSRIGAARGLLLQKVRSGQCQTRDQCPETCQFNSVCLSRRGRPHCSCDRVTCDGAYRPVCAQDGHTYDNDCWRQQAECRQQQTIPPKHQGPCDQTPSPCRGAQCAFGATCTVKNGKAVCECQRVCSGGYDPVCGSDGVTYGSVCELESMACTLGREIRVARRGPCDRCGQCRFGSLCEVETGRCVCPSECVESAQPVCGSDGHTYASECELHVHACTHQISLYVASAGHCQTCGETVCTFEGHHHHHH | not soluble
MGSDKIHHHHHHMRIIILSSSTNRSGGTRQAFYQARELATRGHHVSLCLPEDSQMHGMGYDDLIVTLPADRKRWKASIEALFAADGPTVVHAFHNRAVKFVAWHGMFWRHRGVVCCAHRGVMYRPGNPLPYISPGMDAFIANSQACARVLRLFTPAGKLFVVYNGVDDARVTPRTPADTAREQVGLPPRGAEAAWSSSSPAPLVFGFVGQNSPVKGADILIDAFARADVGEARLLMVGVSHDMWRPRCEALGIADRVHLVPHTESVSDMLQLMDAFVLPSRTESLPNTMLEAIRMGLPVIGSAVGGVPELVRGNGLLFPAGDIDALAAALGRMASDHATREAWAAASHAEGERYTIHARVDALEDIYAQLLRRRGLHTA | not soluble
MGSDKIHHHHHHMDNVPEPSSEKFRAYRQKLLDQLETSSQGERHRAQYELELMRNSHFVKVGGLLHHYHDSGPENPRGTVLLIHGWDCWWMWWHRIIRELNAAGYRTVAYDMKGHGWSENDPENRYQIADFVRDLDELIRAIGLKDLHIAAFSFGPFVALDYVNTYPNSVRSMVFFNFGYLPNSEFISKVAPATIIFIFNIMMRKLTWWLPAYIFARLVLSRNSVMMHDIKVGFESLGFCASEAIEQTAQQITAMETTQMLPDMVRAVRVPILFAAGEGDVIMTCENARKLQEMTPSGSYLCVPDCGHLITLELPQTAAEIVLQHISSNS | not soluble
MSLSRQIRYYGTGTEKVEEELQDLLPDANIIRMDNDTTRKKGAHAKLLAQFGSGEADILIGTQMIAKGLDFPNVTLVGVLNADTALGLPDFRASERTFQLLTQVSGRAGRAEKSGHVYIQTFNPDHYAIRFAQHHDYEGFFKYEMQMRHRGGYPPYYFTVQITASDLDEGVAAKRMYQLLQWLRPRLAPSTILLGPTPKPIARVNRRYYYQIVIKYKQEPNLAQTLTTLLHETQAQQRQGLQIGIDVEPLHFMEGHHHHHH | not soluble
MGSDKIHHHHHHMAERLGISIRSIYRDIDSLRAQGVRIDASAGLGFQLKEDILLPPVTFNENEAEALFLALEWLKDVPDQAMKSAAVSIYSKLYAVLPEHRKYLIDDMTLGVTHYWHPVDEALVEQVRLAIRKQVKIKVDYCDEHKRISQRSLWPFALGYLHDKVVLAAWCELRQAFRHFRIDRIHDLQMSEEIYPEFKKHLFQRWWKQEMQRTTDKN | not soluble
MGSDKIHHHHHHMNKRRNGLSSRSSTKGITTITIDPLMLVEMMHIHDSAFPIGGYTHSFGLETYIQRDIVKDENSLIQWCRTYLYDNLGYGDGILLKETLEVLKKSGSLAAIIEVDRLAHAQKLARESREGSLKMGRQFLQTVLPLQEDESLSQWAQLIRAKEAHGHYATTYGVFSYTRAYPDQMTMIAFLYSSVANLVHNAVRAIPLGQSTGVRVIHQLHEDCLYVAQQVVARSLNDLSNHAIGIELASMEHEHLHSRLFIS | not soluble
